Results on 1 molecule are retold here after patent US20220057415A1, “METHOD FOR DETECTING ALLERGIC DISEASES” (The University of Tokyo, priority 2018, published 2022).

In assay [1] the test system is ovalbumin-specific IgE in serum. Nature of the assay: Ovalbumin-specific IgE level in serum (ELISA). Format: in vivo, BALB/C mice. As to conditions: OVA-sensitized mice (two i.p. sensitizations, not stimulated with OVA); not detected in unsensitized group; mean±SD. As for the experimental part:
(§1) To 23 BALB/C mice (female, 5 weeks old) (CLEA Japan, Inc., the same applies hereinafter), 50 μg of ovalbumin (manufactured by Sigma, sometimes abbreviated as “OVA” herein) dissolved and diluted with physiological saline (manufactured by Otsuka Pharmaceutical Co., Ltd.) and 1 mg of aluminum potassium sulfate (manufactured by Sigma-Aldrich Co. LLC.) were intraperitoneally administered simultaneously, and, after two weeks, 50 μg of OVA was intraperitoneally administered again for sensitization. Two weeks after the second sensitization, OVA (400 μg/10 μL) was transnasally administered once daily for 5 days (5 times, in total) or 10 days (10 times, in total) for stimulation, thereby preparing allergic rhinitis (sometimes abbreviated as “AR” herein) model mice. […]
Antigen sensitization is known to increase the antigen-specific IgE value in serum. To confirm the ovalbumin sensitization of the allergic rhinitis model mice prepared in Example 1 (1), the ovalbumin-specific IgE level in serum was measured. […] The freeze-preserved serum was diluted 25 times, and then the IgE level was measured using Anti-Ovalbumin IgE (mouse) ELISA Kit (manufactured by Cayman Chemical Company) according to the instructions attached to the kit.
In general terms: In an ELISA, binding on a coated surface is turned into a signal by an enzyme label.

The subject of assay [2] is BALB/C mice. Nature of the assay: Evaluation of sneezing symptom. The class given is in vivo. As for the experimental part:
as §1
For the AR model mice (22 mice) and solvent-administered group (10 mice) prepared in Example 1, the numbers of sneezes for a period of 10 minutes from 1 minute to 11 minutes after each of the first to tenth administrations of OVA or the solvent were counted. For the upper respiratory inflammation model mice (9 mice) and single-time solvent-administered group (6 mice) prepared in Example 1, the numbers of sneezes were counted hourly after the administration of LPS or the solvent (until 10 hours later).

For assay [3], the system named is BALB/C mice. Nature of the assay: Measurement of nasal cavity volume by computed tomography. Format: in vivo. As for the experimental part:
To 23 BALB/C mice (female, 5 weeks old) (CLEA Japan, Inc., the same applies hereinafter), 50 μg of ovalbumin (manufactured by Sigma, sometimes abbreviated as “OVA” herein) dissolved and diluted with physiological saline (manufactured by Otsuka Pharmaceutical Co., Ltd.) and 1 mg of aluminum potassium sulfate (manufactured by Sigma-Aldrich Co. LLC.) were intraperitoneally administered simultaneously, and, after two weeks, 50 μg of OVA was intraperitoneally administered again for sensitization. […]
The nasal cavity volume of the AR model mice prepared in Example 1 was measured by computed tomography before the administration of OVA (6 mice), 24 hours after the fifth administration of OVA (6 mice), and 24 hours after the tenth administration of OVA (6 mice). As a control, the nasal cavity volume of the solvent-administered group prepared in Example 1 was measured in the same manner as above before the administration of the solvent (6 mice), 24 hours after the fifth administration of the solvent (6 mice), and 24 hours after the tenth administration of the solvent (6 mice). […] From the captured image, regions having a CT value of −900 to −300 HU (Hounsfield unit) were decided as the nasal cavities, and their volume was measured.

Assay [4] relates to BALB/C mice. In words: Histopathological count of immunocytes infiltrated into nasal turbinates. The class given is in vivo. As for the experimental part:
Specifically, the maxilla was excised from the mice and immediately immersed in 4% paraformaldehyde at 4° C. for 5 days. Then, it was immersed in EDTA every day and decalcified at 4° C. for 10 days. Next, the bone covering the orbit was excised with a razor, dehydrated and cleared, and then embedded in paraffin to prepare continuous section specimens having a width of 4 μm. Hematoxylin-eosin staining (HE staining), chloroacetate-esterase staining (CAE staining), toluidine blue staining (TB staining) or May-Grünwald Giemsa staining (MG staining) was performed according to a conventional method for encapsulation. Specific staining procedures are as will be described below. The stained nasal cavity tissue was observed under an optical microscope (ACT-10, manufactured by Nikon Corporation), and imaged using a digital microscope camera (OPTIPHOT-2, manufactured by Nikon Corporation). The number of immunocytes (connective tissue type mast cells, mucosal type mast cells, eosinophils and neutrophils) in the nasal turbinates (sites where inflammatory cells infiltrate when rhinitis occurs and where many capillaries gather) was counted within 16 to 24 randomly selected areas (magnification: ×400) per section. CAE staining is a staining method in which mast cell-specific esterase is stained red using naphthol AS-D chloroacetate as a substrate. The continuous section specimens prepared in the above item (1) were deparaffinized and used for staining. A 4% sodium nitrite solution and a new fuchsin solution were mixed at a ratio of 1:1, and then this solution and a naphthol solution were mixed at a ratio of 1:9. This solution and phosphate buffer (0.2M NaH2PO4, 0.2M Na2HPO4, pH 7.6) were mixed at a ratio of 1:20, and the sections were immersed for 10 minutes. The sections were washed with distilled water and then counterstained with a hematoxylin solution. The total number of the mast cells (connective tissue type mast cells and mucosal type mast cells) present in the connective tissue and mucosal tissue within 1 mm^2 was counted to calculate the mean value and standard deviation. TB staining stains acidic mucous polysaccharides. Acidic mucous polysaccharides are present in the connective tissue type mast cells and absent in the mucosal type mast cells. The continuous section specimens prepared in the above item (1) were deparaffinized and then immersed in a 0.05% toluidine blue solution (pH: 4.1) for 10 minutes. Then, they were decolorized with a 90% alcohol solution and then encapsulated. CAE staining stains both the connective tissue type mast cells and the mucosal type mast cells, whereas TB staining stains only the connective tissue type mast cells. CAE staining and TB staining were performed on different sections, and cells positive for CAE staining and positive for TB staining were decided as connective tissue type mast cells. Also, cells positive for CAE staining and negative for TB staining were decided as mucosal type mast cells. The total number of the connective tissue mast cells or mucosal type mast cells present in the connective tissue and mucosal tissue within 1 mm^2 was counted to calculate the mean value and standard deviation. May-Grünwald Giemsa staining stains eosinophil-specific eosinophilic granules red. The continuous section specimens prepared in the above item (1) were deparaffinized and then immersed in a May-Grünwald staining solution for 6 minutes. Then, the sections were washed with 1/15 M-phosphate buffer (×10) (0.2M NaH2PO4, 0.2M Na2HPO4, pH 6.4 to 6.8). Thereafter, the sections were immersed for 3 minutes in a solution obtained by mixing a Giemsa staining solution and distilled water at a ratio of 1:20. HE staining and MG staining were performed on different sections, and cells confirmed to have a multilobed nucleus by HE staining and positive for MG staining were decided as eosinophils. Also, cells have a multilobed nucleus by HE staining and negative for MG staining were decided as neutrophils. […]

Setting [5] is: 10-time OVA-administered group vs 10-time solvent-administered group.

B1: OVA: ovalbumin (manufactured by Sigma), antigen used for sensitization and stimulation of the allergy models (protein, UniProt P01012 2-386, looked up)
Ovalbumin: GSIGAASMEFCFDVFKELKVHHANENIFYCPIAIMSALAMVYLGAKDSTRTQINKVVRFDKLPGFGDSIEAQCGTSVNVHSSLRDILNQITKPNDVYSFSLASRLYAEERYPILPEYLQCVKELYRGGLEPINFQTAADQARELINSWVESQTNGIIRNVLQPSSVDSQTAMVLVNAIVFKGLWEKAFKDEDTQAMPFRVTEQESKPVQMMYQIGLFRVASMASEKMKILELPFASGTMSMLVLLPDEVSGLEQLESIINFEKLTEWTSSNVMEERKIKVYLPRMKMEEKYNLTSVLMAMGITDVFSSSANLSGISSAESLKISQAVHAAHAEINEAGREVVGSAEAGVDAASVSEEFRADHPFLFCIKHIATNAVLFFGRCVSP
Take B1: in assay [1], the “serum ovalbumin-specific IgE” value was 23 ± 6.29 ng/mL. Further, in the assay with BALB/C mice [2] (allergic rhinitis model mice, from the first transnasal administration of OVA), the frequency of sneezing result is given as “observed to increase”. Besides, the “number of sneezes for 10 minutes after administration” value with BALB/C mice [2] (fifth administration of OVA, compared with solvent-administered group, maintained until tenth administration) is recorded as “significantly increased”. Also, the nasal cavity volume entry is on record as “decreased” in the assay on BALB/C mice [3] (5-time OVA-administered group, 24 hours after fifth administration) and “significantly decreased” with BALB/C mice [3] (10-time OVA-administered group, compared with before the administration of OVA). For the same molecule, the “number of eosinophils infiltrated into the nasal turbinates” value in the assay with BALB/C mice [4] (5-time OVA-administered group vs 10-time solvent-administered group) and in the assay with BALB/C mice [4] (setting [5]) was “significant increase” throughout. The “number of infiltrated eosinophils” value in the assay with BALB/C mice [4] (5-time OVA-administered group vs LPS-administered group) and in the assay with BALB/C mice [4] (10-time OVA-administered group vs 5-time OVA-administered group) was “significantly increased” throughout. Moreover, the “number of mucosal type mast cells infiltrated into the nasal turbinates” value was “no significant difference” in the assay with BALB/C mice [4] (5-time OVA-administered group, solvent-administered groups and LPS-administered group compared); “significant increase” with BALB/C mice [4] (setting [5]). In addition, in the assay with BALB/C mice [4] (OVA-administered groups (5 and 10 times) and solvent-administered groups), the “number of neutrophils infiltrated into the nasal turbinate” value is listed as “no significant difference”. In the assay with BALB/C mice [4] (OVA-administered groups (5 and 10 times), solvent-administered groups and LPS-administered group compared), the “number of connective tissue type mast cells infiltrated into the nasal turbinates” value was “no significant difference”.
